Values belong to the binder of their own block, whether it stands above or below them.
B14: IL-2 V2 (ligand)
chain: APTSSSTKKTQLQLEHLLLDLQMILNGINNYKNPKLTAMLTAKFAMPKKATELKHLQCLEEALKPLEEVLNLAQSKNFHLRPRDLISNINVIVLELKGSETTFMCEYADETATIVEFLNRWITFAQSIISTLT

Tests used:
IL-2 [1] = target: T1, IL-2 (UniProt P60568 21-153); assay: SPR
T1 construct: also called interleukin 2
Target sequence in this assay (P60568 21-153 limits assumed): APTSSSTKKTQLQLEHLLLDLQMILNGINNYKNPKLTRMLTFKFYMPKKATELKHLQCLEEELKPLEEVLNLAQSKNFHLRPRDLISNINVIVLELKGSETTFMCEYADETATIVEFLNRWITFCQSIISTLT

IL-2 V2 = target: B14; assay: cell-based or functional assay
IL-2 V3 = IL-2 V3 (Homo sapiens (Human), UniProt P60568 21-153); assay: cell-based or functional assay
IL-2 [2] = target: T1, IL-2; assay: SPR, criterion of kinetic Group 2
CD25 on CD25+ cells = target: T2, CD25 on CD25+ cells (UniProt P01589 22-272, limits assumed); assay: cell-based or functional assay
T2 sequence (looked up): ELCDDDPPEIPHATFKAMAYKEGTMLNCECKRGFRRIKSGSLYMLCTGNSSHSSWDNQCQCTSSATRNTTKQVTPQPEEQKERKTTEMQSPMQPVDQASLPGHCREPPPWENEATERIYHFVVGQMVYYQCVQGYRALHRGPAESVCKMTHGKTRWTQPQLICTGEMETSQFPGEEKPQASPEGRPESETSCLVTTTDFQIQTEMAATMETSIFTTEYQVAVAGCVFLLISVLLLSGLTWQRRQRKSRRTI

B1: VHH1 (VHH)
VHH: EVQLVESGGGLVQPGGSLRLSCAASGSIFSINVMGWYRQAPGKQRELVAAISSGGSTNYADSVKGRFTISRDNAKNTVYLQMNSLKPEDTAVYYCMYASSWYEDETDYWGQGTQVTVSS
notes: In the functional rows it stood as the masking moiety of constructs C7, C2, C4 and C6, fused to an Fc chain; also called Parental; parental anti-IL-2
Kd (IL-2 [1]): 0.0601 nM
koff (IL-2 [1]): 3.28e-05 s⁻¹
kon (IL-2 [1]): 546000 M⁻¹ s⁻¹
EC50 (pM) of intact construct C7, HEK Blue cell-based reporter assay (IL-2 V2): 3390 pM
Fold Change (Intact/Cleaved), construct C7, HEK Blue assay (IL-2 V2): 112 fold
Fold Change (Intact/Parental), construct C7, HEK Blue assay (IL-2 V2): 101 fold
Average EC50 (nM) with MMP, construct C2, pSTAT5 on CD8+ T cells of hPBMCs (IL-2 V3): 0.23 nM
Average EC50 (nM) with MMP, construct C4, pSTAT5 on CD8+ T cells of hPBMCs (IL-2 V3): 0.26 nM
Average EC50 (nM) with MMP, construct C6, pSTAT5 on CD8+ T cells of hPBMCs (IL-2 V3): 0.28 nM
Average EC50 (nM) without MMP, construct C2, pSTAT5 on CD8+ T cells of hPBMCs (IL-2 V3): 137 nM
Average EC50 (nM) without MMP, construct C4, pSTAT5 on CD8+ T cells of hPBMCs (IL-2 V3): 136 nM
Average EC50 (nM) without MMP, construct C6, pSTAT5 on CD8+ T cells of hPBMCs (IL-2 V3): 470 nM
Fold Change (Cleaved/Unmasked Control), construct C2 (IL-2 V3): 4.2 fold
Fold Change (Cleaved/Unmasked Control), construct C4 (IL-2 V3): 4.7 fold
Fold Change (Cleaved/Unmasked Control), construct C6 (IL-2 V3): 5.1 fold
Fold Masking (Uncleaved/Unmasked Control), construct C2 (IL-2 V3): 2490 fold
Fold Masking (Uncleaved/Unmasked Control), construct C4 (IL-2 V3): 2470 fold
Fold Masking (Uncleaved/Unmasked Control), construct C6 (IL-2 V3): 8550 fold

B3: VHH21 (VHH)
VHH: EVQLVESGGGLVQPGGSLRLSCAASGSIFSSNVMGWYRQAPGKQRELVAAISSGGSTNYADSVKGRFTISRDNAKNTVYLQMNSLKPEDTAVYYCAYASSFYEDETDYWGQGTQVTVSS
notes: also called I31S, M96A, W101F
kd relative to VHH1 kd (IL-2 [2]): > 6 fold of VHH1 kd

B4: VHH5 (VHH)
VHH: EVQLVESGGGLVQPGGSLRLSCAASGSIFSINVMGWYRQAPGKQRELVAAISSGGSTNYADSVKGRFTISRDNAKNTVYLQMNSLKPEDTAVYYCAYASSWYEDETDYWGQGTQVTVSS
notes: also called M96A
kd relative to VHH1 kd (IL-2 [2]): > 6 fold of VHH1 kd

B5: VHH6 (VHH)
VHH: EVQLVESGGGLVQPGGSLRLSCAASGSIFSINVMGWYRQAPGKGRELVAAISSGGSTNYADSVKGRFTISRDNAKNTVYLQMNSLKPEDTAVYYCMYASSWYEDETDYWGQGTQVTVSS
notes: In the functional rows it stood as the masking moiety of construct C8; also called Q44G
Kd (IL-2 [1]): 0.00457 nM
koff (IL-2 [1]): 2.18e-06 s⁻¹
kon (IL-2 [1]): 476000 M⁻¹ s⁻¹
EC50 (pM) of intact construct C8, HEK Blue cell-based reporter assay (IL-2 V2): 4270 pM
Fold Change (Intact/Cleaved), construct C8, HEK Blue assay (IL-2 V2): 176 fold
Fold Change (Intact/Parental), construct C8, HEK Blue assay (IL-2 V2): 127 fold

B6: VHH9 (VHH)
VHH: EVQLVESGGGLVQPGGSLRLSCAASGSIFSINVMGWYRQAPGKGRELVAAISSGGSTNYADSVKGRFTISRDNAKNTVYLQMNSLKPEDTAVYYCAYASSFYEDETDYWGQGTQVTVSS
notes: In the functional rows it stood as the masking moiety of construct C12; also called Q44G, M96A, W101F
Kd (IL-2 [1]): 10.9 nM
EC50 (pM) of intact construct C12, HEK Blue cell-based reporter assay (IL-2 V2): 4140 pM
Fold Change (Intact/Cleaved), construct C12, HEK Blue assay (IL-2 V2): 180 fold
Fold Change (Intact/Parental), construct C12, HEK Blue assay (IL-2 V2): 123 fold

B8: VHH26 (VHH)
VHH: EVQLVESGGGLVQPGGSLRLSCAASGSIFSSNVMGWYRQAPGKQRELVAAISSGGSTNYADSVKGRFTISRDNAKNTVYLQMNSLKPEDTAVYYCAYASSYYEDETDYWGQGTQVTVSS
notes: In the functional rows it stood as the masking moiety of construct C10; also called I31S, M96A, W101Y
Kd (IL-2 [1]): 1.35 nM
koff (IL-2 [1]): 0.00427 s⁻¹
kon (IL-2 [1]): 3.15e+06 M⁻¹ s⁻¹
EC50 (pM) of intact construct C10, HEK Blue cell-based reporter assay (IL-2 V2): 3970 pM
Fold Change (Intact/Cleaved), construct C10, HEK Blue assay (IL-2 V2): 202 fold
Fold Change (Intact/Parental), construct C10, HEK Blue assay (IL-2 V2): 118 fold
kd relative to VHH1 kd (IL-2 [2]): > 6 fold of VHH1 kd

B10: VHH7 (VHH)
VHH: EVQLVESGGGLVQPGGSLRLSCAASGSIFSINVMGWYRQAPGKGLELVAAISSGGSTNYADSVKGRFTISRDNAKNTVYLQMNSLKPEDTAVYYCMYASSWYEDETDYWGQGTQVTVSS
notes: In the functional rows it stood as the masking moiety of construct C9; also called Q44G, R45L
Kd (IL-2 [1]): 0.187 nM
koff (IL-2 [1]): 0.000111 s⁻¹
kon (IL-2 [1]): 595000 M⁻¹ s⁻¹
EC50 (pM) of intact construct C9, HEK Blue cell-based reporter assay (IL-2 V2): 6240 pM
Fold Change (Intact/Cleaved), construct C9, HEK Blue assay (IL-2 V2): 201 fold
Fold Change (Intact/Parental), construct C9, HEK Blue assay (IL-2 V2): 186 fold

B12: VHH12 (VHH)
VHH: EVQLVESGGGLVQPGGSLRLSCAASGSIFSINVMGWYRQAPGKGRELVAAISSGGSTNYADSVKGRFTISRDNAKNTVYLQMNSLKPEDTAVYYCAYASSYYEDETDYWGQGTQVTVSS
notes: In the functional rows it stood as the masking moiety of constructs C13 and C1; also called Q44G, M96A, W101Y
Kd (IL-2 [1]): 12.7 nM
koff (IL-2 [1]): 3.97 s⁻¹
EC50 (pM) of intact construct C13, HEK Blue cell-based reporter assay (IL-2 V2): 3130 pM
Fold Change (Intact/Cleaved), construct C13, HEK Blue assay (IL-2 V2): 158 fold
Fold Change (Intact/Parental), construct C13, HEK Blue assay (IL-2 V2): 93.1 fold
Average EC50 (nM) with MMP, construct C1, pSTAT5 on CD8+ T cells of hPBMCs (IL-2 V3): 0.051 nM
Average EC50 (nM) without MMP, construct C1, pSTAT5 on CD8+ T cells of hPBMCs (IL-2 V3): 28.1 nM
Fold Change (Cleaved/Unmasked Control), construct C1 (IL-2 V3): 0.9 fold
Fold Masking (Uncleaved/Unmasked Control), construct C1 (IL-2 V3): 511 fold

B13: IL-2 V7 (ligand)
chain: APTSSSTKKTQLQLEHLLLDLQMILNGINNYKNPKLTRMLTSKFYMPKKATELKHLQCLEESLKPLEEVLNLAQSKNFHLRPRDLISNINVIVLELKGSETTFMCEYADETATIVEFLNRWITFAQSIISTLT
EC50 (read off the curve), %pSTAT5+ of CD4+FoxP3+CD25+ cells (CD25 on CD25+ cells): ~3000 pM

Binder: B14
EC50 (read off the curve), %pSTAT5+ of CD4+FoxP3+CD25+ cells (CD25 on CD25+ cells): ~4000 pM

The next lines start with the values.

Average EC50 (nM) with MMP, construct C5, pSTAT5 on CD8+ T cells of hPBMCs (IL-2 V3): 0.25 nM
Average EC50 (nM) without MMP, construct C5, pSTAT5 on CD8+ T cells of hPBMCs (IL-2 V3): 411 nM
Fold Change (Cleaved/Unmasked Control), construct C5 (IL-2 V3): 4.5 fold
Fold Masking (Uncleaved/Unmasked Control), construct C5 (IL-2 V3): 7470 fold
B2: VHH46 (VHH)
VHH: EVQLVESGGGLVQPGGSLRLSCAASGSIFSINVMGWYRQAPGKQRELVAAISSGGSTNYADSVKGRFTISRDNAKNTVYLQMNSLKPEDTAVYYCMYASSWYEDETDYWGQGTQVTVSS

kd relative to VHH1 kd (IL-2 [2]): > 6 fold of VHH1 kd
B7: VHH40 (VHH)
VHH: EVQLVESGGGLVQPGGSLRLSCAASGSIFSINVMGWYRQAPGKQRELVAAISSGGSTNYADSVKGRFTISRDNAKNTVYLQMNSLKPEDTAVYYCMYASSWYEDETDYRGQGTLVTVSS
notes: also called W109R, Q114L

kd relative to VHH1 kd (IL-2 [2]): > 6 fold of VHH1 kd
B9: VHH31 (VHH)
VHH: EVQLVESGGGLVQPGGSLRLSCAASGSIFSSNVMGWYRQAPGKGLELVAAISSGGSTNYADSVKGRFTISRDNAKNTVYLQMNSLKPEDTAVYYCAYASSFYEDETDYWGQGTQVTVSS
notes: also called I31S, Q44G, R45L, M96A, W101F

Kd (IL-2 [1]): 3.99 nM
koff (IL-2 [1]): 0.00237 s⁻¹
kon (IL-2 [1]): 594000 M⁻¹ s⁻¹
EC50 (pM) of intact construct C11, HEK Blue cell-based reporter assay (IL-2 V2): 2860 pM
Fold Change (Intact/Cleaved), construct C11, HEK Blue assay (IL-2 V2): 118 fold
Fold Change (Intact/Parental), construct C11, HEK Blue assay (IL-2 V2): 84.9 fold
kd relative to VHH1 kd (IL-2 [2]): > 6 fold of VHH1 kd
B11: VHH36 (VHH)
VHH: EVQLVESGGGLVQPGGSLRLSCAASGSIFSSNVMGWYRQAPGKGLELVAAISSGGSTNYADSVKGRFTISRDNAKNTVYLQMNSLKPEDTAVYYCAYASSYYEDETDYWGQGTQVTVSS
notes: In the functional rows it stood as the masking moiety of construct C11; also called I31S, Q44G, R45L, M96A, W101Y
